Measurements published in PMC5976663, “Mapping of Adenovirus of serotype 3 fibre interaction to desmoglein 2 revealed a novel ‘non-classical’ mechanism of viral receptor engagement” (Scientific Reports, 2018).

B1: N-terminal His-tagged recombinant Ad3 fibre knob (His-Ad3K) (domain or fragment)
chain: NSIALKNNTLWTGPKPEANCIIEYGKQNPDSKLTLILVKNGGIVNGYVTLMGASDYVNTLFKNKNVSINVELYFDATGHILPDSSSLKTDLELKYKQTADFSARGFMPSTTAYPFVLPNAGTHNENYIFGQCYYKASDGALFPLEVTVMLNKRLPDSRTSYVMTFLWSLNAGLAPETTQATLITSPFTFSYIREDD
notes: human adenovirus serotype 3 (HAd3) fibre protein, knob, Asn124 to Asp319 of the full-length protein, GenBank ABB17809.1; The printed GenBank entry holds; also called HAd3 fibre knob; trimeric knob; source: E. coli Rosetta(DE3)pLysS, pETDuet-1; purified (His GraviTrap, Superdex 200); also co-expressed with MBP-DSG2 constructs, in lysate; not shown: His6, N-terminal, kept
B2: DSG2 EC2-3 after MBP removal (digested DSG2 EC2-3, bacterial) (domain or fragment, human, UniProt Q14126 149-386, looked up)
chain: VLDINDNEPVFTQDVFVGSVEELSAAHTLVMKINATDADEPNTLNSKISYRIVSLEPAYPPVFYLNKDTGEIYTTSVTLDREEHSSYTLTVEARDGNGEVTDKPVKQAQVQIRILDVNDNIPVVENKVLEGMVEENQVNVEVTRIKVFDADEIGSDNWLANFTFASGNEGGYFHIETDAQTNEGIVTLIKEVDYEEMKNLDFSVIVANKAAFHKSIRSKYKPTPIPIKVKVKNVKEGI
notes: Theoretical mass 27.8 kDa after TEV cleavage; not glycosylated (bacterial); also called MBP-free EC2-3; source: E. coli Rosetta(DE3)pLysS, co-expressed with His-Ad3K; co-purified (His GraviTrap), TEV-cleaved, second His GraviTrap, Superdex 200; not shown: MBP, N-terminal, cleaved

Key:
[1] = target: the molecule itself; test: SEC-MALS; 50 uL at 1 mg/mL on Superdex 200 Increase 10/300 GL, 150 mM NaCl, 3 mM CaCl2, 10 mM Tris-Cl pH 8.0, 0.5 mL/min; co-expressed and co-purified MBP-free complex, and His-Ad3K alone
[2] = target: B1; test: as above; details: both partners purified
[3] = target: B1; test: AUC; sedimentation velocity (headed SE-AUC), 42,000 rpm, 20 °C, 3 mM CaCl2, 10 mM Tris pH 8.0, 150 mM NaCl; c(s) by SedFit; co-purified MBP-free complex, and His-Ad3K alone; two concentrations; details: both partners purified

| Binder | stoichiometry N [1] | stoichiometry N [2] | stoichiometry N [3] |
| --- | --- | --- | --- |
| B1 | 3 | – | – |
| B2 | – | 1 DSG2 EC2-3 per His-Ad3K trimer | 1 receptor per trimeric knob |
